From patent publication US20240109978A1

Biological target: CD19 on NALM-6 cells (CD19+ B lineage, acute lymphoblastic leukemia) (UniProt P15391)
Test: cell-based or functional assay

Sequence of UniProt P15391 (P15391 20-556 limits assumed): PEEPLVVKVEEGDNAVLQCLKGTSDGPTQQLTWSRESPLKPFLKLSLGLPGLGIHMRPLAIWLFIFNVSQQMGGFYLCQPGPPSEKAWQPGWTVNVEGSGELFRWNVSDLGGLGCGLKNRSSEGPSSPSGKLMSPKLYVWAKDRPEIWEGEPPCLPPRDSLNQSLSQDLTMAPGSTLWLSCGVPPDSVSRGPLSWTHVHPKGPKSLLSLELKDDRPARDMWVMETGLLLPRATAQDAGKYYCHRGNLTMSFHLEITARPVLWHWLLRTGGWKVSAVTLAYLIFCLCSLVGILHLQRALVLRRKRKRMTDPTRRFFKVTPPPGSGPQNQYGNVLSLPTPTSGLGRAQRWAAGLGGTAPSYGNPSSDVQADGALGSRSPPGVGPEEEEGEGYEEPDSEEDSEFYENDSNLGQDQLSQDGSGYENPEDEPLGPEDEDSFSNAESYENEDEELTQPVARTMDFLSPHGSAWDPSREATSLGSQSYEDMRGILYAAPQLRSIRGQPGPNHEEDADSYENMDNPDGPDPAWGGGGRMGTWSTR

IgG1-based CAR (FMC63 scFv, IgG1-CH2-CH3 spacer, CD28 transmembrane and intracellular domains, and CD3zeta-signaling domain) (receptor)
killing efficacy against NALM-6 cells, 18 h co-culture, 2:1 (E:T) ratio (luciferase): 100%
